Assay: yeast display, Sf9 membrane polyspecificity reagent, FACS + sequencing; frameworks hold sequencing errors
Outline: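 Nanobodies came from a synthetic yeast display library in Saccharomyces cerevisiae BJ5465, induced with galactose for 36–48 hours and stained for 1 hour at 4 °C with 10% biotinylated, detergent-solubilized Sf9 membrane reagent. Cells were enriched on streptavidin microbeads and then FACS-sorted, with low and high (top ~1%) gates set on anti-HA fluorescence for expression and streptavidin fluorescence for reagent binding. Each polyreactivity label reflects the gate a clone came from. Genes were amplified by colony PCR, sequenced by MiSeq 2 × 250 and filtered by CDR length.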

Sequence	polyreactivity (PSR sort gate)
HVQLVESGGGLVQAGGSLRLSCAASGNIFVRYAMGWYRPAPGKERELVAAISSSGGRTYYADSVKGRFTISRDNAKNTVYLQMNSLKPEDTAVYYCATGRPSHNRYDYWGQGTQVTVSS	high polyreactivity
QVQHVESGGGLLQAGGSLRLTCTASRSIFPYYAMGWYRQATGKERELVAAISSSGARTYYADSVKGRFTISRDNAKNTVYLQMNSLKPEDTGFYYCNSDTIRYRTYGRYAWYNYWGQGTQVTVSS	high polyreactivity
QVQLVESGGGLVQAGGSLRLSCAASGLTFYQYAMGWYRQAPGKERELVAAISKSAGSTYYADSVKGRFTISRDNAKNTVYLQMNSLKPEDTAVYYCNAARPFTRVPRQTWKMGYWGQGTQVTVSS	high polyreactivity
QVQLVESGGGLVQAGGSLRLSCAASGSTFNVYAMGWYRQAPGKERDLVAAIDSGDSTNYADSVKGRFTISRDNAKNTVYLEMNSLKPEDTAVYYCAVGYWDSRYRYDWPNSDYWGQGTQVTVSS	low polyreactivity
QVQLVESGGGLVQAGGSLRLTCAASGSTFTYYAMGWYRQAPGKERDLVAAITSSDGSTYYADSVKGRFTISRDNAKNTVYLQMNSLKPEDTAVYYCAADNYVDFYDEYDYWGQGTQVTVSS	low polyreactivity
QVQLVESGGGLVQAGGSLRLSCAASGLTFDEYAMGWYRQPPGKERELVARITQSGGSTYYADSVKGRFTISRDNAKNTVYLQMNSLKPEDTAVYYCNAGAPARYWWEGDYWGQGTQVTVSS	high polyreactivity
QVQLVESGRGLVQAGGSLRLSCEDSGNIFPYYAMGWYRQAPGKERELVAAISGSGDRTYYADSVNGRFTISRDNAKNTVYLQMNSLKPEDTAVYYCAAYRRYYGWYDYWGQGTQVTVSS	high polyreactivity
QVQLVESGRGLVQAGGSLRLSCAASGRIFGRNAMGWYRQAPGKESELVASITSGGGTNYADSVKGRFTISRDNAKNTVYLQMNSLKPDDTAVYDCAKQFYRPGQQSRYDYWGQGMQVTVSS	low polyreactivity
QVQLVESGGGLVQAGGSLRLSCAASGSTFAYYAMGWYRQAPGKERELVAASSVSGGRTYYADSVQGRFTISRDNAKNTVYLQMNSLKPEDTAVYYCAARLWRDYYWGQGTQVTVSS	high polyreactivity
QVQLVESGGGLVQAGGSLRLSCAASGFIFNYNAMGWYRQAPGKERELVAAISGTGVRTYYADSVKGRFTISRDNAKNTVYLQMNRLKPEDTAVYYCNAYYGYIPVSGYRNDYWGQGTQVTVSS	low polyreactivity
QVQLVESGGGLVQAGGSLRLSCAASGFTFPSYAMGWYRQAPGNERELVAVLSRRGGSTYYADSVKGRFTISRDNAKNTVYLQMNSLKPEDTAVYYCAADFRYYLTTRFNYWGQGTQVTVSS	high polyreactivity
QVQLVESGGGLVQAGGSLRLSCAASGRTFAPYAMGWYRQAPGKERELVAAIRWTGTSTYYADSVKGRFTISRDNAKNTVYLQMNSLKPEDTAVYYCNADLYNREGWGQGTQVTVSS	high polyreactivity
QVQLVESGGGLVQAGGSLRLRCAASGSIFISYAMGWYRQAPGKERELVAAISIRGTRTFYADSVKGRFTISRDNAKNTVYLQMNSLKPEDTAVYYCAARAPWPKWGYYYWGQGTQVTVSS	high polyreactivity
QVQLVESGGGLVQAGGSLRLSCAASGSIFEGNAMGWYRQAPGKERELVAAISTTGGITYYADSVKGRFTISRDKAKNTVYLQMNSLKPEDTAVYYCAADPSQPRIDSSNYDYWGQGTQVTVSS	low polyreactivity
QGQLVESGGGLVQAGGSLRLSCAASGRTFGINAMGWYRQAPGKERELVAVISFGDGGTYYADSVKGRFTISRDNAKNTVYLQMNSLKPEDTAVYYCATDYQSTSVWGGHFVINPYDYWGQGTQVTVSS	low polyreactivity
QVQLVESGGGLVQAGGSLRLSCAASGFTFRRYTMGWYRQAPGKERELVAAISRSGGSTFYADSVKGRFTISRDYAKNTVYLQMNSLKPEDTAVYYCNAGRTYTALNGDYWGQGTQVTVSS	high polyreactivity
QVQLVESGGGLVQAGGSLRFSCAASGSTFVYYGMGWDRQAPGKERELVAAITDIGDSTNYADSVKGRFTISRDNAKNTVYLQMNSLKPEDTAVYYCAASGRSVPYYGSPRNDYWGQGTQVTVSS	low polyreactivity
